From publication PMC4917298 (Nature immunology, 2016)

Biological target: S6K1(WT)-HA (mouse, UniProt Q8BSK8-2 1-502)
Assay: co-IP

S6K1(WT)-HA, sequence (Q8BSK8 24-525): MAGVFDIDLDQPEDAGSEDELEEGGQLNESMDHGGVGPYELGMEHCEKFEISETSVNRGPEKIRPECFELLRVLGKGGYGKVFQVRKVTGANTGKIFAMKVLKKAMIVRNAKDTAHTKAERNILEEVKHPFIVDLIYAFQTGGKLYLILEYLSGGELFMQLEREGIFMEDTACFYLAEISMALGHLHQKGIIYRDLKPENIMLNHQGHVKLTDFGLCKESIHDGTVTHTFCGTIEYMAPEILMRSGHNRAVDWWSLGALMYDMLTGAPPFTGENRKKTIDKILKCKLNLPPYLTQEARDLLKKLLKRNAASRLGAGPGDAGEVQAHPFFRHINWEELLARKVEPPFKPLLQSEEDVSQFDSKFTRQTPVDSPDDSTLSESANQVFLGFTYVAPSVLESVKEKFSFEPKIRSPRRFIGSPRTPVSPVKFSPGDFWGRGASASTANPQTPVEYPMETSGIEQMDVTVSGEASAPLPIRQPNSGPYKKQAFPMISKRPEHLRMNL

B1: phosphorylated STING-Flag (phosphorylated by TBK1) (natural protein, mouse, UniProt Q3TBT3 1-378, looked up)
chain: MPYSNLHPAIPRPRGHRSKYVALIFLVASLMILWVAKDPPNHTLKYLALHLASHELGLLLKNLCCLAEELCHVQSRYQGSYWKAVRACLGCPIHCMAMILLSSYFYFLQNTADIYLSWMFGLLVLYKSLSMLLGLQSLTPAEVSAVCEEKKLNVAHGLAWSYYIGYLRLILPGLQARIRMFNQLHNNMLSGAGSRRLYILFPLDCGVPDNLSVVDPNIRFRDMLPQQNIDRAGIKNRVYSNSVYEILENGQPAGVCILEYATPLQTLFAMSQDAKAGFSREDRLEQAKLFCRTLEEILEDVPESRNNCRLIVYQEPTDGNSFSLSQEVLRHIRQEEKEEVTMNAPMTSVAPPPSVLSQEPRLLISGMDQPLPLRTDLI
modifications: phosphorylated by TBK1 (slower mobility, removed by calf intestine phosphatase); sites not stated
B1: binds.
